Results on one molecule are retold here after paper PMC12249877, “AlphaFold 3-Assisted Deciphering of the DNA Recognition by DREB1 Transcription Factors in Rice”.

The target of one series is OsDREB1A-DBD F43G (Oryza sativa (rice), UniProt Q64MA1 32-103, F43G). Briefly: EMSA; 0.6 uM protein; EMSA: 0.01 uM FAM-dsDNA, 50 mM NaH2PO4, 150 mM NaCl, 5 mM DTT, 2% glycerol, pH 6.8, 15 min, room temperature; 12% native PAGE in 0.5x TBE. The note with it: protein: recombinant; tags: C-terminal His-tag (pET28); blunt.
The target of another series is OsDREB1A-DBD V64A (Oryza sativa (rice), UniProt Q64MA1 32-103, V64A). The description is as above. Particulars: protein: recombinant; tags: C-terminal His-tag (pET28); blunt.
Sequence of OsDREB1A-DBD V64A (Q64MA1 32-103 V64A): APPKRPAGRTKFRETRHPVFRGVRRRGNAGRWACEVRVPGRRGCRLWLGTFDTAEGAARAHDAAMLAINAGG

Sequence of OsDREB1A-DBD F43G (Q64MA1 32-103 F43G): as the sequence (Q64MA1 32-103 V64A) above, with F12G, A33V counted along it

B1: CRT (dsDNA)
DNA 1: GTACGCCGACACT
DNA 2: AGTGTCGGCGTAC
In the case of B1, the binding result with OsDREB1A-DBD F43G and in the series with OsDREB1A-DBD V64A was “binds” in each case.
